Measurements as given in the supplement of paper PMC10567573.

B1: SPSB4 (parent)
chain: LDMDEGTLSFIVDGQYLGVAFRGL

Variants of: B1
Assay: protein stability index of a GFP-peptide fusion (GPS, HEK-293T) (PSI 1-6); higher = more stable
Settings: c terminus: a fixed tail appended
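Note: lentivirally expressed fusions sorted by FACS into six bins by GFP to DsRed ratio, PSI derived from sequencing read proportions per bin multiplied by bin number.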

Variant	protein stability index
LDMDEGTTSFIVDGQYLGVAFRGL [L8T]	1.87
LDMDEGTHSFIVDGQYLGVAFRGL [L8H]	1.55
LDMDEGTQSFIVDGQYLGVAFRGL [L8Q]	2.12
LDMDEGTDSFIVDGQYLGVAFRGL [L8D]	2.21
LDMDEGTPSFIVDGQYLGVAFRGL [L8P]	1.88
LDMDEGTCSFIVDGQYLGVAFRGL [L8C]	3.35
LDMDEGTNSFIVDGQYLGVAFRGL [L8N]	1.86
LDMDEGTISFIVDGQYLGVAFRGL [L8I]	2.43
LDMDEGTVSFIVDGQYLGVAFRGL [L8V]	4.24
LDMDEPTLSFIVDGQYLGVAFRGL [G6P]	1.72
LDMDETTLSFIVDGQYLGVAFRGL [G6T]	2.32
LDMDEKTLSFIVDGQYLGVAFRGL [G6K]	2.78
LDMDEFTLSFIVDGQYLGVAFRGL [G6F]	2.25
LDMDEHTLSFIVDGQYLGVAFRGL [G6H]	2.65
LDMDEATLSFIVDGQYLGVAFRGL [G6A]	3.24
LDMDEQTLSFIVDGQYLGVAFRGL [G6Q]	3.01
LDMDEITLSFIVDGQYLGVAFRGL [G6I]	2.38
LDMDEWTLSFIVDGQYLGVAFRGL [G6W]	2.88
LDMDEDTLSFIVDGQYLGVAFRGL [G6D]	1.87
LDMDERTLSFIVDGQYLGVAFRGL [G6R]	2.28
EDMDEGTLSFIVDGQYLGVAFRGL [L1E]	1.66
RDMDEGTLSFIVDGQYLGVAFRGL [L1R]	2.09
SDMDEGTLSFIVDGQYLGVAFRGL [L1S]	1.71
WDMDEGTLSFIVDGQYLGVAFRGL [L1W]	2.76

Variant	protein stability index
HDMDEGTLSFIVDGQYLGVAFRGL [L1H]	2.12
PDMDEGTLSFIVDGQYLGVAFRGL [L1P]	1.96
IDMDEGTLSFIVDGQYLGVAFRGL [L1I]	2.59
MDMDEGTLSFIVDGQYLGVAFRGL [L1M]	2.75
LDMDEGTLSFIVDGQKLGVAFRGL [Y16K]	1.93
LDMDEGTLSFIVDGQALGVAFRGL [Y16A]	1.57
LDMDEGTLSFIVDGQFLGVAFRGL [Y16F]	3.17
LDMDEGTLSFIVDGQGLGVAFRGL [Y16G]	1.78
LDMDEGTLSFIVDGQTLGVAFRGL [Y16T]	2.34
LDMDEGTLSFIVDGQRLGVAFRGL [Y16R]	1.69
LDMDEGTLSFIKDGQYLGVAFRGL [V12K]	1.79
LDMDEGTLSFIWDGQYLGVAFRGL [V12W]	3.35
LDMDEGTLSFIADGQYLGVAFRGL [V12A]	1.96
LDMDEGTLSFISDGQYLGVAFRGL [V12S]	1.8
LDMDEGTLSFIYDGQYLGVAFRGL [V12Y]	2.36
LDMDEGTLSFIDDGQYLGVAFRGL [V12D]	1.99
LDMDEGTLSFITDGQYLGVAFRGL [V12T]	2.35
LDMDEGTLSFIEDGQYLGVAFRGL [V12E]	2.01
LDMDEGTLSFIFDGQYLGVAFRGL [V12F]	1.92
LDMDEGTLSFIQDGQYLGVAFRGL [V12Q]	1.58
LDMDEGTLSFINDGQYLGVAFRGL [V12N]	1.75
LDMDEGTLSFIRDGQYLGVAFRGL [V12R]	1.84
LDMDEGTLSFIVDEQYLGVAFRGL [G14E]	1.91
LDMDEGTLSFIVDPQYLGVAFRGL [G14P]	3.54

Variant	protein stability index
LDMDEGTLSFIVDAQYLGVAFRGL [G14A]	2.58
LDMDEGTLSFIVDLQYLGVAFRGL [G14L]	2.11
LDMDEGTLSFIVDIQYLGVAFRGL [G14I]	3.85
LDMDEGTLSFIVDKQYLGVAFRGL [G14K]	2.44
LDMDEGTLSFAVDGQYLGVAFRGL [I11A]	1.72
LDMDEGTLSFSVDGQYLGVAFRGL [I11S]	2.63
LDMDEGTLSFLVDGQYLGVAFRGL [I11L]	3.07
LDMDEGTLSFRVDGQYLGVAFRGL [I11R]	2.4
LDMDEGTLSFPVDGQYLGVAFRGL [I11P]	2.25
LDMDEGTLSFTVDGQYLGVAFRGL [I11T]	2.74
LDMDEGTLSFEVDGQYLGVAFRGL [I11E]	1.39
LDMDEGTLSFYVDGQYLGVAFRGL [I11Y]	2.58
LDMDEGTLSFVVDGQYLGVAFRGL [I11V]	1.47
LDMDEGTLSFWVDGQYLGVAFRGL [I11W]	1.56
LDMDEGTLSFIVDGQYLGVAFRRL [G23R]	1.88
LDMDEGTLSFIVDGQYLGVAFRIL [G23I]	2.48
LDMDEGTLSFIVDGQYLGVAFREL [G23E]	2.42
LDMDEGTLSFIVDGQYLGVAFRNL [G23N]	2.38
LDMDEGTLSFIVDGQYLGVAFRTL [G23T]	2.5
LDMDEGTLSFIVDGQYLGVAFRML [G23M]	2.84
LDMDEGTLSFIVDGQYLGVAFRSL [G23S]	3.28
LDMDEGTLSFIVDGQYLGVAFRQL [G23Q]	1.47
LDMDEGTLSFIVHGQYLGVAFRGL [D13H]	2.94
LDMDEGTLSFIVWGQYLGVAFRGL [D13W]	2.55

Variant	protein stability index
LDMDEGTLSFIVEGQYLGVAFRGL [D13E]	2.83
LDMDEGTLSFIVLGQYLGVAFRGL [D13L]	2.94
LDMDEGTLSFIVYGQYLGVAFRGL [D13Y]	3.11
LDMDEGTLSFIVTGQYLGVAFRGL [D13T]	3.32
LDMDEGTLSFIVMGQYLGVAFRGL [D13M]	2.37
LVMDEGTLSFIVDGQYLGVAFRGL [D2V]	2.35
LRMDEGTLSFIVDGQYLGVAFRGL [D2R]	2.74
LKMDEGTLSFIVDGQYLGVAFRGL [D2K]	1.64
LPMDEGTLSFIVDGQYLGVAFRGL [D2P]	2.26
LEMDEGTLSFIVDGQYLGVAFRGL [D2E]	2.68
LHMDEGTLSFIVDGQYLGVAFRGL [D2H]	2.12
LDPDEGTLSFIVDGQYLGVAFRGL [M3P]	1.74
LDLDEGTLSFIVDGQYLGVAFRGL [M3L]	3.27
LDHDEGTLSFIVDGQYLGVAFRGL [M3H]	2.39
LDNDEGTLSFIVDGQYLGVAFRGL [M3N]	1.52
LDQDEGTLSFIVDGQYLGVAFRGL [M3Q]	2.68
LDRDEGTLSFIVDGQYLGVAFRGL [M3R]	2.68
LDMDEGTLSFIVDGQYLGVAIRGL [F21I]	2.95
LDMDEGTLSFIVDGQYLGVAMRGL [F21M]	1.43
LDMDEGTLSFIVDGQYLGVANRGL [F21N]	1.98
LDMDEGTLSFIVDGQYLGVAYRGL [F21Y]	2.27
LDMDEGTLSFIVDGQYLGVAGRGL [F21G]	1.76
LDMDEGTLSFIVDGQYLGVAARGL [F21A]	1.7
LDMDEGTLSFIVDGQYLGVALRGL [F21L]	1.8

Variant	protein stability index
LDMDEGTLSFIVDGQYLGVAQRGL [F21Q]	1.98
LDMDEGTLSFIVDGQYLGVACRGL [F21C]	1.62
LDMDEGTLSFIVDGQYLGVAFRGI [L24I]	3.11
LDMDEGTLSFIVDGQYLGVAFRGF [L24F]	3.21
LDMDEGTLSFIVDGQYLGVAFRGK [L24K]	1.65
LDMDEGTLSFIVDGQYLGVAFRGP [L24P]	2.78
LDMDEGTLSFIVDGQYLGVAFRGN [L24N]	2.19
LDMDEGTLSFIVDGQYLGVAFRGE [L24E]	1.48
LDMDEGTLSFIVDGQYLGVAFRGV [L24V]	3.18
LDMDNGTLSFIVDGQYLGVAFRGL [E5N]	3.71
LDMDIGTLSFIVDGQYLGVAFRGL [E5I]	3.72
LDMDGGTLSFIVDGQYLGVAFRGL [E5G]	1.85
LDMDYGTLSFIVDGQYLGVAFRGL [E5Y]	2.27
LDMDPGTLSFIVDGQYLGVAFRGL [E5P]	1.42
LDMDEGTLNFIVDGQYLGVAFRGL [S9N]	2.9
LDMDEGTLQFIVDGQYLGVAFRGL [S9Q]	2.01
LDMDEGTLPFIVDGQYLGVAFRGL [S9P]	1.74
LDMDEGTLCFIVDGQYLGVAFRGL [S9C]	2.76
LDMDEGTLLFIVDGQYLGVAFRGL [S9L]	1.75
LDMDEGTLHFIVDGQYLGVAFRGL [S9H]	2.95
LDMDEGTLSFIVDGQYLGVAFSGL [R22S]	2.46
LDMDEGTLSFIVDGQYLGVAFHGL [R22H]	3.23
LDMDEGTLSFIVDGQYLGVAFTGL [R22T]	4.1
LDMDEGTLSFIVDGQYLGVAFCGL [R22C]	2.55

Variant	protein stability index
LDMDEGTLSFIVDGQYLGVAFWGL [R22W]	1.31
LDMDEGTLSFIVDGQYLGVAFLGL [R22L]	1.81
LDMDEGTLSFIVDGQYLGVAFAGL [R22A]	3
LDMDEGTLSFIVDGQYLGVQFRGL [A20Q]	1.86
LDMDEGTLSFIVDGQYLGVGFRGL [A20G]	2.38
LDMDEGTLSFIVDGQYLGVVFRGL [A20V]	3.1
LDMDEGTLSFIVDGQYLGVKFRGL [A20K]	2.11
LDMDEGTLSFIVDGQYLGVNFRGL [A20N]	1.68
LDMDEGTLSFIVDGQYLGVRFRGL [A20R]	2.47
LDMDEGTLSPIVDGQYLGVAFRGL [F10P]	2.3
LDMDEGTLSQIVDGQYLGVAFRGL [F10Q]	2
LDMDEGTLSKIVDGQYLGVAFRGL [F10K]	2.37
LDMDEGTLSVIVDGQYLGVAFRGL [F10V]	2.38
LDMDEGTLSEIVDGQYLGVAFRGL [F10E]	3.13
LDMDEGTLSYIVDGQYLGVAFRGL [F10Y]	1.89
LDMDEGTLSLIVDGQYLGVAFRGL [F10L]	1.76
LDMDEGTLSFIVDGQYLNVAFRGL [G18N]	2.19
LDMDEGTLSFIVDGQYLCVAFRGL [G18C]	2.03
LDMDEGTLSFIVDGQYLMVAFRGL [G18M]	2.85
LDMDEGTLSFIVDGQYLEVAFRGL [G18E]	2.06
LDMDEGTLSFIVDGQYLVVAFRGL [G18V]	2.45
LDMDEGTLSFIVDGQYLYVAFRGL [G18Y]	3.25
LDMDEGTLSFIVDGQYLKVAFRGL [G18K]	1.8
LDMDEGTLSFIVDGQYLDVAFRGL [G18D]	2.55

Variant	protein stability index
LDMDEGTLSFIVDGQYLHVAFRGL [G18H]	2.93
LDMDEGTLSFIVDGQYLAVAFRGL [G18A]	2.82
LDMDEGTLSFIVDGQYLIVAFRGL [G18I]	4.2
LDMAEGTLSFIVDGQYLGVAFRGL [D4A]	1.71
LDMCEGTLSFIVDGQYLGVAFRGL [D4C]	1.66
LDMTEGTLSFIVDGQYLGVAFRGL [D4T]	2.45
LDMHEGTLSFIVDGQYLGVAFRGL [D4H]	3.59
LDMGEGTLSFIVDGQYLGVAFRGL [D4G]	2.73
LDMVEGTLSFIVDGQYLGVAFRGL [D4V]	2.95
LDMREGTLSFIVDGQYLGVAFRGL [D4R]	2.39
LDMDEGTLSFIVDGQYSGVAFRGL [L17S]	1.86
LDMDEGTLSFIVDGQYGGVAFRGL [L17G]	1.47
LDMDEGTLSFIVDGQYVGVAFRGL [L17V]	3.15
LDMDEGTLSFIVDGQYRGVAFRGL [L17R]	2.03
LDMDEGTLSFIVDGQYIGVAFRGL [L17I]	3.23
LDMDEGTLSFIVDGQYDGVAFRGL [L17D]	2.29
LDMDEGTLSFIVDGQYPGVAFRGL [L17P]	2.51
LDMDEGTLSFIVDGQYHGVAFRGL [L17H]	1.86
LDMDEGTLSFIVDGQYAGVAFRGL [L17A]	2.15
LDMDEGTLSFIVDGQYNGVAFRGL [L17N]	1.51
LDMDEGTLSFIVDGTYLGVAFRGL [Q15T]	3.63
LDMDEGTLSFIVDGMYLGVAFRGL [Q15M]	1.98
LDMDEGTLSFIVDGFYLGVAFRGL [Q15F]	2.25
LDMDEGTLSFIVDGHYLGVAFRGL [Q15H]	3.32

Variant	protein stability index
LDMDEGTLSFIVDGKYLGVAFRGL [Q15K]	2.5
LDMDEGTLSFIVDGDYLGVAFRGL [Q15D]	2.33
LDMDEGTLSFIVDGSYLGVAFRGL [Q15S]	2.35
LDMDEGNLSFIVDGQYLGVAFRGL [T7N]	1.23
LDMDEGDLSFIVDGQYLGVAFRGL [T7D]	2.11
LDMDEGYLSFIVDGQYLGVAFRGL [T7Y]	2.04
LDMDEGELSFIVDGQYLGVAFRGL [T7E]	1.31
LDMDEGLLSFIVDGQYLGVAFRGL [T7L]	1.99
LDMDEGSLSFIVDGQYLGVAFRGL [T7S]	3.54
LDMDEGALSFIVDGQYLGVAFRGL [T7A]	2.34
LDMDEGQLSFIVDGQYLGVAFRGL [T7Q]	3.36
LDMDEGILSFIVDGQYLGVAFRGL [T7I]	2.18
LDMDEGTLSFIVDGQYLGDAFRGL [V19D]	1.99
LDMDEGTLSFIVDGQYLGRAFRGL [V19R]	2.04
LDMDEGTLSFIVDGQYLGGAFRGL [V19G]	2.18
LDMDEGTLSFIVDGQYLGYAFRGL [V19Y]	2.49
LDMDEGTLSFIVDGQYLGWAFRGL [V19W]	2.04
LDMDEGTLSFIVDGQYLGFAFRGL [V19F]	2.31
LDMDEGTLSFIVDGQYLGKAFRGL [V19K]	2.1
LDMDEGTLSFIVDGQYLGQAFRGL [V19Q]	1.94
